From IntAct's records for PubMed 17290217

B1: Phosphatidylinositol 4-phosphate 5-kinase type-1 gamma (Mus musculus), O70161 (parent)
chain: MELEVPDEAESAEAGAVTAEAAWSAESGAAAGMTQKKAGLAEAPLVTGQPGPGHGKKLGHRGVDASGETTYKKTTSSTLKGAIQLGIGYTVGNLSSKPERDVLMQDFYVVESIFFPSEGSNLTPAHHFQDFRFKTYAPVAFRYFRELFGIRPDDYLYSLCNEPLIELSNPGASGSVFYVTSDDEFIIKTVMHKEAEFLQKLLPGYYMNLNQNPRTLLPKFYGLYCVQSGGKNIRVVVMNNVLPRVVKMHLKFDLKGSTYKRRASKKEKEKSLPTYKDLDFMQDMPEGLLLDSDTFGALVKTLQRDCLVLESFKIMDYSLLLGVHNIDQQERERQAEGAQSKADEKRPVAQKALYSTAMESIQGGAARGEAIETDDTMGGIPAVNGRGERLLLHIGIIDILQSYRFIKKLEHTWKALVHDGDTVSVHRPSFYAERFFKFMSSTVFRKSSSLKSSPSKKGRGALLAVKPLGPTAAFSASQIPSEREDVQYDLRGARSYPTLEDEGRPDLLPCTPPSFEEATTASIATTLSSTSLSIPERSPSDTSEQPRYRRRTQSSGQDGRPQEEPHAEDLQKITVQVEPVCGVGVVPKEEGAGVEVPPCGASAAASVEIDAASQASEPASQASDEEDAPSTDIYFPTDERSWVYSPLHYSARPASDGESDT

Variants of: B1
Details: with Ap2b1, Q9DBG3-1
Sequence of Ap2b1, Q9DBG3-1 (Q9DBG3 whole entry): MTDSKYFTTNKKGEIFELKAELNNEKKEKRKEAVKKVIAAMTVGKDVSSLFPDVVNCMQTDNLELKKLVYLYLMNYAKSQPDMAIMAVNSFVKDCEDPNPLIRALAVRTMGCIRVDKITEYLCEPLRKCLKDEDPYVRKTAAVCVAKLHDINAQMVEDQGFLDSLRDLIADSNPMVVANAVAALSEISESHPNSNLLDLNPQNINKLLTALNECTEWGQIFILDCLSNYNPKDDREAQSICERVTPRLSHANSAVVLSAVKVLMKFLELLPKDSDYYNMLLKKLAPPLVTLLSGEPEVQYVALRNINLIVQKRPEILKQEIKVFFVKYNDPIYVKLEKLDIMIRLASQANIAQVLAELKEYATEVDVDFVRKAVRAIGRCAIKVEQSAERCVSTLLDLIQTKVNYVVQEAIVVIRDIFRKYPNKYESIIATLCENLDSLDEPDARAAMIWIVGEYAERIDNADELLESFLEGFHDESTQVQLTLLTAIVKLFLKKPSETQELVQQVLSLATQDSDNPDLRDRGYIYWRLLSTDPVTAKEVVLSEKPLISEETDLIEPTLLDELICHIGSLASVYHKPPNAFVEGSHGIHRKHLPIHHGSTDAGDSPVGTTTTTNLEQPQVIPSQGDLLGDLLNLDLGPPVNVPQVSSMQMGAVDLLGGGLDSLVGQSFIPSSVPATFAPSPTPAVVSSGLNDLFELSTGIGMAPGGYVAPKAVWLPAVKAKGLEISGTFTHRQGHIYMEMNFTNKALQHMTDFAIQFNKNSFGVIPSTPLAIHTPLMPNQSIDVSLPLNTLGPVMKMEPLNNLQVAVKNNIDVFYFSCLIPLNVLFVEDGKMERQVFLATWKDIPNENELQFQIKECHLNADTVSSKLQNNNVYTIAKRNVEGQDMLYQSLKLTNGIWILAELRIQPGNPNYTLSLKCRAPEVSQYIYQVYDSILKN

effect of a mutation on the interaction	Variant
disrupting interaction	D277A

Variants of: B1
Details: with Ap2b1, Q9DBG3-2
Sequence of Ap2b1, Q9DBG3-2 (Q9DBG3 other isoform, or with tags, fused parts or gaps): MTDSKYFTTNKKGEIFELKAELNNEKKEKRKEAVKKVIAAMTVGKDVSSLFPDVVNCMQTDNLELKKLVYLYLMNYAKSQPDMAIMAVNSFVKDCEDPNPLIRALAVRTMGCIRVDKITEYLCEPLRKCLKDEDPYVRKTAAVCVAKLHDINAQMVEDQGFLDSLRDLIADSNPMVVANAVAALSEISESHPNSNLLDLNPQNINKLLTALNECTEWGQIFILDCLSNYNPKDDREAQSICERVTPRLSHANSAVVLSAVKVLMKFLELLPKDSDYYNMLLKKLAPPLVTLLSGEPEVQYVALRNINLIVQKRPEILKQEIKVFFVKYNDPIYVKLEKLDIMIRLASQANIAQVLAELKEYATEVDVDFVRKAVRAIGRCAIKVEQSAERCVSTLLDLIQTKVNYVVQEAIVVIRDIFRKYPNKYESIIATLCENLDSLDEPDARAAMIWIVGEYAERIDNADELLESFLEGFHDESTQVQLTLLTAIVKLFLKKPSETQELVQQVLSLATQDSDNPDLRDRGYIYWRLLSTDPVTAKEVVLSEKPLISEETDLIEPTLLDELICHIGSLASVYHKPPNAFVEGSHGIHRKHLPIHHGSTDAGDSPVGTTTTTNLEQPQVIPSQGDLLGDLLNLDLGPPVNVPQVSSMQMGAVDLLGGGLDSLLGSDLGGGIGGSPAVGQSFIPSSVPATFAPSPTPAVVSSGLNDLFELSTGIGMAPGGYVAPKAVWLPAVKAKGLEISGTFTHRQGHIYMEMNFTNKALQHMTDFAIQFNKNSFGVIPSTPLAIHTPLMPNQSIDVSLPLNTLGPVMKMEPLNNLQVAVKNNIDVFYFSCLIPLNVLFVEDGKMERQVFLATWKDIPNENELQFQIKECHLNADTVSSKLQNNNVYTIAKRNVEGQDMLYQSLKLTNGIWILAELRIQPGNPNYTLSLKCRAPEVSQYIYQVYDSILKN

effect of a mutation on the interaction	Variant
disrupting interaction	S645E

Variants of: B1
Details: with Ap2b1, Q9DBG3-1
Remark: another data set of the same source

effect of a mutation on the interaction	Variant
disrupting interaction	S645E
